These results are taken from US20200317768A1 (published 2020).

The target of assay [1] is T1, Cynomolgus monkey latent myostatin (cynomolgus monkey, UniProt Q95J86 25-266; Q95J86 267-375).
T1 construct: signal 1-24; also called Cyno latent myostatin
T1 sequence 1: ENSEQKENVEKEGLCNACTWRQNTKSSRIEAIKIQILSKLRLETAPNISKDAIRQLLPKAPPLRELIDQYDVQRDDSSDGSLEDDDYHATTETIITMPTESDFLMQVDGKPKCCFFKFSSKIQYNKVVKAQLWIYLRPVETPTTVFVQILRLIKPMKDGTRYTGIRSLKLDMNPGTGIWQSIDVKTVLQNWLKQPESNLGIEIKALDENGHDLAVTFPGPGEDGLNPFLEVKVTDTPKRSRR
T1 sequence 2: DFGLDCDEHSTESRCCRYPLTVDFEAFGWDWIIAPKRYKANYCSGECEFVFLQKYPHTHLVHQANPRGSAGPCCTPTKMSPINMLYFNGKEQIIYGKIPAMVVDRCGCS
Briefly: SPR (BIACORE T200), 37 C, pH7.4, avidity condition (capture 185 RU), 1:1 fit; pH 7.4.

A further assay addresses T2, Mouse latent myostatin (mouse, UniProt O08689 26-267; O08689 268-376).
T2 construct: signal 1-24
T2 sequence 1: T1 sequence 1 with N2G, Q5R, K6E, T19A, K25R, S26Y, K59R, V107A, E140K, N173S
T2 sequence 2: T1 sequence 2
Described as above.

Substitutions are numbered along the chain they refer to.

B1: MS_M103205H000-SG1/M103202LO00-SK1 (antibody, human IgG1, kappa, V domains shown)
VH: QVTLKESGPVLVKPTETLTLTCTVSGIDLSSYDISWVRQAPGKGLEWVGIISYAGSTYYASWAKGRLTISKDTSKNQVVLTMTNMDPVDTATYYCARGVPAYSTGGDLWGQGTLVTVSS
VL: DIVMTQSPATLSLSPGERATLSCQSSQSVYDNNWLSWFQQKPGQPPKLLIYWASTLASGVPSRFSGSGSGTDFTLTISSLQPEDAATYYCAGGYGGGLYAFGQGTKVEIKR
notes: Humanized MST1032, not pH-dependent; also called MS1032LO00-SG1; Ab001
Regarding B1, in assay [1], the Kd came to 0.066 nM, the koff stood at 8.08e-05 s⁻¹ and the kon is 1.21e+06 M⁻¹ s⁻¹. In the assay with Mouse latent myostatin, this molecule displayed a Kd of 0.0471 nM, an off-rate constant (koff) of 7.18e-05 s⁻¹ and a kon of 1.52e+06 M⁻¹ s⁻¹.
